test: label from the status in PepcDB records
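Also: failed if final PepcDB status was selected cloned or expressed and not failed if soluble or beyond.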

**Q.** With “MDLLKNIFKGDKVIWIIFLCLCLISIIEVFSAASTLTYKSGDHWGPITQHSIILMVGAVVVVLMHNIPYKWFQVFPVFLYPISVVLLAFVTLMGVITGDRVNGAARWMSFMGLQFQPSELAKMAVIIAVSFILSKKQDDEGANPKAFKYIMILTGLVCMLIAPENLSTAMLLFGVVVLMMFIGRVAFKKLAMLLGGLALVGCLGAVFLLAIPKDTDIPFLHRFDTWKSRITNFTEKEEVPAAKFDIDKDAQIAHARIAIATSNVIGKAPGNSIQRDFLSQAFSDFIFAIIIEELGLVGGAFVVILYIWLLVRTGRIAQKCERTFPAFLVMGIALMLVSQAILNMMVAVGLFPVTGQPLPLISKGGTSTLINCAYIGMILSVSRYTAYLEEKKENPAPLLTQSEGNETIASEAQTAAEPTAEVLNSDAKFEE” as the sequence, how does the protein production read?
**A.** failed

**Q.** With “MDLPVMPPVKPMLAKSVAKIPPGMHYEAKWDGFRAIVYRDGDEVELGSRTGKPLTRYFPELVVAVRERLPERCVVDGEIVIARDGHLDFDALTERIHPADSRVRTLAERTPASLVAFDLLALDDASLLDVGLADRRALLVRALSGVTPPVHVAPATDDIEVARRWFEQYEGAGLDGVVAKPLDLRYRQDERAMYKIKHERTADVVVAGYRFHKSGPVVGSLLLGLYDDRGLLQHVGVSAAFTMKRRAELVAELEPLRMDDARGHPWAAWAEEAAHESARLPGAPSRWSGKKDLSWVPLRPERVVEVAYDHMENGARFRHTARFRRWRPDRTPESCTYAQLEEPVRYDLAEILGGPLEHHHHHH” as the sequence, how does the protein production read?
**A.** failed

**Q.** With “MDLSLLKALSEADAIASSEQEVRQILLEEAARLQKEVRFDGLGSVLIRLNESTGPKVMICAHMDEVGFMVRSISREGAIDVLPVGNVRMAARQLQPVRITTREECKIPGLLDGDRQGNDVSAMRVDIGARTYDEVMQAGIRPGDRVTFDTTFQVLPHQRVMGKAFDDRLSCYLLVTLLRELHDAELPAEVWLVASSSEEVGLRGGQTATRAVSPDVAIVLDTACWAKNFDYGAANHRQIGNGPMLVLSDKSLIAPPKLTAWIETVAAEIGVPLQADMFSNGGTDGGAVHLTGTGVPTLVMGPATRHGHCAASIADCRDILQMEQLLSALIQRLTRETVVQLTDFR” as the sequence, how does the protein production read?
**A.** not failed

**Q.** Which protein production does the source give for “MDLSLSTRTVGDRTVVEVGGEIDVYTAPKLREQLVELVNDGNFHLVVDMEGVDFLDSTGLGVLVGGLKRVRAHEGSLRLVCNQERILKIFRITGLTKVFPIHTSVEEAVAATD” here?
**A.** failed

**Q.** Which protein production does the source give for “MDLVKIDETLDDLQIKDIHIIQKKEGFRFGVDAVLLANYAKVKSNQTVIDLCSGTGIIPFIIQGKKSPRHITGIEIQEDMVQMANRTVLYNKFQEKIKFINEDIKNLAELKKLERVDVVTVNPPYKLRNSGIVNEFDKNAIARHEICCTLEDVIKAARTLLKDNGRLFMVHRPERLADILCLMREYKIEPKSIKMVYPSVNKAPNIVLIEGQRDGGAFLKWEKSLYIHKENGEYTEELNEIYGR” here?
**A.** failed

**Q.** For “MDLVLDLLATVSRWSRSNLSEISLALVGCLLVLFGTDVKAWAEQRLGGLAGALRVPFMALMVMIGSGAALIYATPWVVKGLSQFNNYALAPVLLVVLVLIGVVADRRG”, which protein production is on record?
**A.** failed

**Q.** Which protein production does the source give for “MDMNTLLSLSWHLMVPEFIILGAAILLSICDLFFKLNHRYVALGAIASVVLAIVSLITLYSEPTGDILNGSFVLDGFSKGFKTLLLGGAALILCIAMSDDKKNPIEDKGEYYYLFLMALLGAMFMASSVDFITLFVGLELLSLSSYILVGIRKKNLTSNEAAMKYVINGGIGTAITLFGMSYLYGITGSTNIVDMQKVFAGELAGGIQLLLALAFLLLLVGLSFKIATVPFHMWAPDVYEGAATPVTAFLGTISKIAGFLLIIRLFLMVFASVSVQGDTQSLYGRMSIYIAVLASITMIIGNVVALKQYNVKRLFAYSGIAHAGYLLVPLVALSPFTMDSMWFYMLAYMLMNIGAFAIIHGLILQSDKENITIFTGLYKRSPFTAIVMTIFILSLAGIPGTAGFIGKINIFLGALHVEPAHYVLASIMMGTTVISFVYYFRILQQMFFRTGEVEEKIRLPLNIKVVMSLCAISIVILGIMPMIGYNFFYEYFPLMKDFFFLGNVVQ” here?
**A.** failed

**Q.** With “MDMSLHFLSQGDLSGVWGRVYWRRRAGFKAIKIQSAFKAYLARKALWAGKCNGWDSSALTKEDIKAIWLRKQEGLKELFLQERRSPHMLEDSLSTPRQRVGLMDSLFVNYKKDGDKVSLWTSFVCENSKINNAKKSSLTTYQHNC” as the sequence, how does the protein production read?
**A.** not failed

**Q.** Which protein production does the source give for “MDMVTVTAKTVEEAVTKALIELQTTSDKLTYEIVEKGSAGFLGIGSKPAIIRAKRKETLQDKAIEFLEQVFDAMNMAVDISVEYNETEKEMNVNLKGDDMGILIGKRGQTLDSLQYLVSLVVNKSSSDYIRVKLDTENYRERRKETLETLAKNIAYKVKRTKRSVSLEPMNPYERRIIHAALQNDKYVVTRSDGEEPFRHVIISLKRENRRDRNDRSDRNEK” here?
**A.** not failed

**Q.** With “MDNANCVGGCKFETRSFQYRRRIPYSLGADPLPPVHPLSLKNLVDIDTDLISSQLYELYDSIILNDSGLERRYAFVQKLEQILKKEFPYKNIKTSLFGSTQSLLASNASDIDLCIITDPPQCAPTTCEVSAAFARNGLKKVVCISTAKVPIVKVWDSELQLSCDCNINKTISTLNTRLMRSYVLCDPRVRPLIVMIKYWAKRRCLNDAAEGGTLTSYTISCMVINFLQKRDPPILPSLQMLPHLQDSSTMTDGLDVSFFDDPDLVHGFGDKNEESLGILFVEFFRFFGYLFDYEHFVLSIRHGTFLSKRAKGWQFQLNNFLCVEEPFHTSRNLANTADEITMKGIQLEFRRVFRLLAYNCNVDDACSQFTFPSLTDTSFMDDYVNELQLEIVPGFSHGRDSSDTSCTESPPEPSHFAWAFDPYNATASPYYNQNINSSIDYSSIYSNDVPAIPPNVPYTFVDPYTYACYINNNSYLPPSYMDFYTWYNSPYPKSSHHFDERHGGDRHEKNLSNSRRYSRNKFHKKKQSSGPFQYYPDAFSFTPTDNNSPPSNSSSSEVVSPVSLHSEPVLSTVQAFKS” as the sequence, how does the protein production read?
**A.** failed

**Q.** Which protein production does the source give for “MDNITNESDNLIQIFSHNPLALISCIILGIGLLFTFASRQFILVRVLLGNVSFIKQRILGVIFGIVGALLLLFATGNLNL” here?
**A.** failed

**Q.** For “MDNLMLNNKIYLEGTVVSELEFSHEMYGEGFYTFNLEVMRLSDSKDLLNITVSERLITTMDLKIGTEIVVEGQLRSYNKFIDGNNKLILTVFARNIEYCEERSKNPNEIFLDGFICKEPVYRTTPFGREIADLLLAVNRSYNKSDYIPTIAWGRNSRFCKTLEVGDNIRIWGRLQSREYQKKISETEVVKKIAYEVSISKMEKVSVESEQNESGEEISLEHHHHHH”, which protein production is on record?
**A.** failed

**Q.** Which protein production does the source give for “MDNLNVFANEDNQVNGLKRPPPSRVCPRCDSDNTKFCFYNNYSESQPRYFCKNCRRYWTHGGALRNIPVGGSCRKPKRLKVDQSSISEMVSVENQPINHQSFRQTQENNEFVRSFDASSSATVTAVPNHFGYLSELHGVTNLLPIQSFRTMDCLDFGDESFQQGYYDVGSNDLIDNPLINQSIGGYVDNLTSYCINQVEPKLQPRYEHES” here?
**A.** failed

**Q.** Which protein production does the source give for “MDNRKRLAYAIIQFLHGQLRHGGLSCDAQESLEVAIQCLETAFGVTLEDSDLALPQTLPEIFEAATSSKQEMPQDPRAPDRTPPSEEDSAEAERLKTEGNEQMKLENFEAAVHLYGKAIELNPANAVYFCNRAAAYSKLGNYVGAVQDCERAIGIDPGYSKAYGRMGLALSSLNKHAEAVAYYKKALELDPDNDTYKSNLKIAELKLREAPSPTGGVGSLDIAGLLNNPHFITMASSLMNSPQLQQLMSGMISGGHNPLGTPGSSPQQSDLASLIQAGQQFAQQMQQQNPEFVEQIRSQVVRSRTPSASHEEQQE” here?
**A.** failed

**Q.** Which protein production does the source give for “MDNRSASLHSDIDTVLNNYDYDFAEVEIAVLGNGHINNTYKLTTPEVEFVLQQINHDVFPKTAELSSNAQKINLHLQRQKNIGNYPLSIPQQILSKTGETYSKVGTNYWRLMEFISNSYTLEEVESPEQAALVANAFAEFSCTLSDFPVEELAVIIEDFHDISFRMRQLNEAVENDLQDRLSSCQTLVNFCLDQQDFINHVIDISKKLPLHVTHNDTKINNLLFTEGDTPCAVIDLDTCMPGLLMHDFGDMVRTCCSNLAEDDTNIDAMIIKLDIFSALIQSYQNAFGTKMSALEKDSLIVGTKSVPFSLGTRFLTDYLNGDSYFQVSREKHNLDRAFNQIQLFILLCEAEPELIKLAMQALEHHHHHH” here?
**A.** failed

**Q.** For “MDNVIKLVPSRWVSESVLMSISGLKKNTIKTARETSWMEGLEYKHVAPDGQPYDNSMCFYNRDEIDKWIERQPAAISRKKSA”, which protein production is on record?
**A.** failed

**Q.** Which protein production does the source give for “MDPDNRVRQRAVKTLGKRGNPDVLEDLMEALKDSRQPVQEAASEALRKIIAASDSVPVLVKALDATDRNVRKAAIEALWKAGTPEAIPPLLRELDDADWYLRSRAADALADIASPEAALGLIKVMDIHDSPVKKIIVNALGKIGTVEAVEGLVKALEDLEHHHHHH” here?
**A.** not failed

**Q.** With “MDPITHGALGAACAQAALGKYDKRIPWQAGALAGMAPDLDVFIRFSQEPLSLEQWHRYLTHSLMFIPIGGLIVALFLLCFSQYRQYWKITIGASLVGYATHCLLDSLTSYGTVLFWPWSDSRISWDIISIIDPVFTLPLLLGTAWSVIYQNQKAVIASLFFCILFLIFNTILHNRAVDGIHQYATTNNFKINHPRALPKLASSTYWRIIAKQQDCLIIAEAKTSLFYPTTIRLIRQALSFNESMIPFALSSGQKSDLATFHWFTDGFLIVANKNPLILADARYTIDDNPIFSLWGIEILPGQEHINKLSLPKINEYCESPDSERYKEDGLN” as the sequence, how does the protein production read?
**A.** failed

**Q.** For “MDPKHKKLLRTQRLFLSEELLVDDLIIQYLYQEEILTESHLEEIQSESSSRNKTLKLLDILPSRGATAFHHFIKSLEKDFPWIRDKLLQLNEEEESPPPPFTVQCGVPDHILLTVPTTLHLNQLASRLGSEWKSVLLDLGLSCADLYRCCSDHPLAVQSQVLAGLVMWTQRNGRGATVQRLIQSLQAADVPPSVLQQVFK”, which protein production is on record?
**A.** failed

**Q.** For “MDPSEYPFDIKAYKRQSEIEEMYIINRFRERRNKIGEDYPPHLSNSDNYFTQRYDAAKKEGISPLPKYTTTMRMFAYGVAADAVDEYSKIGGTTTLECLRRFCKGIIKLYETEYLRAPTQDDLQRILRVSEMRGFPGIIGSINCMQWEWKTCPTVWEGNTTRVNFFVSQHPYNIAYYLADGIYPSYPTFVKSIRLPQSEPDKLFVQRQEACHKDIERAFGVLQARFKIIRKPAGLWDIFELAIIMRSCKWVEYTTTILDPSATPICKSCA”, which protein production is on record?
**A.** failed

**Q.** Which protein production does the source give for “MDPTEMRYLEEENGAMMKTFKDAVTGFATGKTSLVFIGVEQLVQNFRAKRDFFNGAHITMTKVARTHY” here?
**A.** failed

**Q.** For “MDQCYFENSLSTECIIRSASRSDGCQMPKLFCQNLPPPLPPKKYAITSVPQSEKSESTPDVKLTEVFKATSHLPKHSLSTASEPSLEVSTHMNDERHKETFQVRECFGNTPNCPSSSSTNDFQANSGAIDAFCQPELDSISTCPNETVSLTTYFSVDSCMTDTYRLKYHQRPKLSFPESSGFCNNSLS”, which protein production is on record?
**A.** failed

**Q.** For “MDQKEAPSFTEASVHDPSVIKVEDTFYVFGSHLAAAKTEDLRNWTQIATHVHEGNPLIPNVFVELAEAFEWANSNTLWAADVIQLEDGRFYMYYNACQGDAPRSALGVAVADDIEGPYENLGVFLKSGMWGEESPDGTIYDANVHPNAIDPHVFFDEEGKLWMVYGSYSGGIFILEMDPDTGFPLPGQGYGTHLMGGNHSRIEAPYIHYDKETEYYYLYVTFGGLDSTGGYNMRVARSKQPDGPYVDGEGHLMSEVRGAPGTLFDDASIEPYGVKQMGNFLFKRELGERGTGYVSPGHNSVYYDDEVDKIFLFFHTRFPERGEAHEIRVHQMFMNRKGWPVIAPYRYLEHHHHHH”, which protein production is on record?
**A.** failed

**Q.** With “MDQTIHHQIQQALHFRTAVRVYKEEKISDEDLALILDAAWLSPSSIGLEGWRFVVLDNKPIKEEIKPFAWGAQYQLETASHFILLIAEKHARYDSPAIKNSLLRRGIKEGDGLNSRLKLYESFQKEDMDMADNPRALFDWTAKQTYIALGNMMMTAALLGIDTCPIEGFHYDKVNHILAKHNVIDLEKEGIASMLSLGYRLRDPKHAQVRKPKEEVISVVK” as the sequence, how does the protein production read?
**A.** not failed

**Q.** With “MDRAAFPDCCVFLFGFFRRDFGAAGLYGMHDAGLLTGVQLVVAAITLTLFMLCIAQFMMTVKERGFKMALAISGFIFPSALLAGFIVNTLMTALRVKL” as the sequence, how does the protein production read?
**A.** failed
